# In the supplement of paper PMC10266784:
# B1: library; numbered along this chain (parent)
# chain: MAAAAAAAAEQQSSNGPVKKSMREKAVERRSVNKEHNSNFKAGYIPIDEDRLHKTGLRGRKGNLAICVIILLFILAVINLIITLVIWAVIRIGPNGCDSMEFHESGLLRFKQVSDMGVIHPLYKSTVGGRRNENLVITGNNQPIVFQQGTTKLSVENNKTSITSDIGMQFFDPRTQNILFSTDYETHEFHLPSGVKSLNVQKASTERITSNATSDLNIKVDGRAIVRGNEGVFIMGKTIEFHMGGNMELKAENSIILNGSVMVSTTRLPSSSSGDQLGSGDWVRYKLCMCADGTLFKVQVTSQNMGCQISDNPCGNTH
# Variants of: B1
# Assay: SGCB cell-surface expression functional score (HA stain, bin4 vs bin1, normalised to synonymous) (log10 ratio); higher = more cell-surface SGCB (functional)
# Experimental: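 Deep mutational scan of full-length human SGCB (YFP-SGCB-HA, NNN codon sublibraries A-F) delivered by lentivirus at low MOI into ADG-HEK293 cells stably expressing SGCA, SGCD and SGCG. YFP-positive cells were stained for surface HA on unpermeabilized cells and FACS-sorted into bins. The functional score is log10(frequency in high bin 4 / frequency in low bin 1), normalised per chunk so that synonymous variants have mean 0 and SD 0.5. Scores are the median over codons and over duplicate biological replicates; scores below -0.5 are called non-functional. Scale: negative means deleterious.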
row,Variant,SGCB cell-surface expression functional score (log10)
1,R51W,0.83
2,N246L,0.49
3,T55Q,-0.62
4,R60K,0.08
5,Q112E,-0.38
6,R23I,-0.31
7,N132L,-0.16
8,R174E,-0.22
9,N134P,-0.03
10,V200C,-1.14
11,L191P,-1.47
12,Q148G,0.33
13,A8Q,-0.13
14,G149I,-0.64
15,L52R,0.05
16,F241D,-0.57
17,M247D,-1.1
18,S99D,-1.16
19,M305Q,-0.28
20,N253F,0.83
21,R131K,0.23
22,N199M,-0.42
23,T160I,0.64
24,R91N,-0.75

row,Variant,SGCB cell-surface expression functional score (log10)
1,A9N,-0.39
2,R174W,-0.75
3,E35T,0.06
4,L179H,-1.99
5,K19A,0.35
6,F189W,-1.38
7,V300S,-0.35
8,N39M,-0.61
9,S114G,-0.7
10,R109E,-0.02
11,F110I,-0.31
12,Y44Q,0.8
13,M262T,0.19
14,S14I,0.03
15,Q201H,0.31
16,N211I,-0.69
17,S13K,0.46
18,Y123M,-0.24
19,R207H,-0.5
20,N229S,0.94
21,L277F,-0.4
22,N304T,-0.51
23,D183H,-0.33
24,V89S,-0.41

row,Variant,SGCB cell-surface expression functional score (log10)
1,H53P,0.19
2,I144T,-0.64
3,Q11V,-0.03
4,I66D,0
5,G236R,-1.3
6,E10G,0.28
7,A9C,0.54
8,N134D,0.11
9,E49V,0.12
10,L84P,0.02
11,M22F,0.1
12,K111S,-1.07
13,V77M,0.2
14,A224I,1
15,I178W,-1.15
16,T150Q,-0.12
17,N211F,-0.28
18,M22V,0.01
19,V27F,0.28
20,V263Y,0.3
21,G259V,0.07
22,T55S,0.22
23,Y123S,0.68
24,N217R,0.7

row,Variant,SGCB cell-surface expression functional score (log10)
1,L71F,-0.14
2,R131I,0.65
3,T160V,0.03
4,S14A,0.14
5,R29A,0.46
6,K61I,0.48
7,L107Q,0
8,G59F,0.13
9,S271K,0.11
10,E156G,-0.23
11,Q147M,-0.04
12,G194A,-0.67
13,L72G,0.44
14,A76H,-0.07
15,G96D,-2.13
16,A291G,-0.19
17,Q308T,-0.05
18,T182K,-0.75
19,T213E,0.86
20,I78F,-0.56
21,G96K,-2.21
22,L122E,0.35
23,A2N,0.38
24,S99K,-1.57

row,Variant,SGCB cell-surface expression functional score (log10)
1,D275N,-0.12
2,C290Q,-0.2
3,S99F,0.86
4,V226G,-0.26
5,L80W,1.23
6,Y184T,-1.17
7,E49S,0.15
8,I69C,0.05
9,E104M,0.11
10,I234G,-1
11,D183I,-1.89
12,A42Q,-0.07
13,V298N,-0.06
14,I162N,-0.83
15,L135W,-0.88
16,Q169W,-1.48
17,T160S,-0.5
18,T186S,-0.18
19,M262G,0.53
20,D172G,0.2
21,N177D,0.12
22,N217A,0.9
23,S125L,-1.2
24,D311I,0.18

row,Variant,SGCB cell-surface expression functional score (log10)
1,E248N,0.44
2,N79G,0.06
3,C67M,-0.01
4,L268S,0.48
5,G278T,0.14
6,N229P,0.68
7,A6W,-0.46
8,E104S,0.39
9,A3F,0.22
10,G139Q,-1.77
11,T55P,0.19
12,Q147Y,-0.42
13,A76F,0.33
14,F170V,0.47
15,A26G,-0.21
16,M116F,0.29
17,M168F,-0.59
18,A6M,0.13
19,N37F,-0.14
20,L198W,-0.6
21,C97F,-1.5
22,P94M,0.27
23,I82L,0.07
24,E28N,-0.09

row,Variant,SGCB cell-surface expression functional score (log10)
1,T150P,-0.37
2,G139I,-0.91
3,V89N,-2.05
4,A224E,-1.01
5,A65Q,-0.13
6,I81P,0.12
7,G274A,-0.37
8,R131V,0.31
9,M262A,0.37
10,V195I,0.09
11,Q12D,-0.24
12,T138M,0.02
13,I119T,-0.97
14,E28T,0.1
15,G93T,0.23
16,S264M,0.69
17,P121Q,-0.72
18,N134G,-0.09
19,Q11M,-0.03
20,N211C,-1.44
21,S254D,-0.152
22,G43S,0.34
23,R174N,-1.48
